Reference: the DeepSol protein solubility set

assay: soluble on expression in E. coli; label from the status in PepcDB or PDB records

Sequence	soluble on expression in E. coli
MIELKEVVKEYRTKNKEVLAVDHVNLSIRAGSIYGVIGFSGAGKSTLIRMFNHLEAPTSGEVIIDGDHIGQLSKNGLRAKRQKVNMIFQHFNLLWSRTVLKNIMFPLEIAGVPRRRAKQKALELVELVGLKGREKAYPSELSGGQKQRVGIARALANDPTVLLCDEATSALDPQTTDEILDLLLKIREQQNLTIVLITHEMHVIRRICDEVAVMESGKVIEHGPVTQVFENPQHTVTKRFVKEDLNDDFETSLTELEPLEKDAYIVRLVFAGSTTTEPIVSSLSTAYDIKINILEANIKNTKNGTVGFLVLHIPYISSVDFGKFEKELIERQVKMEVLRHG	not soluble
MKNKGLLLKVSTGLAAVSFLFSEYLFKISFKRVDHVPETSQEKQKYAASYWEYVDWFRRINKEHWTFQTKNETERMSAYFIPSKEENSKKVVIIAHGYKGNGETMSSYAKMFYEMGFNVLLPDDRGHGQSMGEYISFGWLDRLDYLQWLKKIIKRVGPKSEILLFGVSMGASTVEMLSGEDLPSQVKCVIADCGYSSIDEEMTFLLKHHYHLPKYPFYPLVSTINRYRLGYYLGDVSSVEQLKKNKLPIFFIHGENDDYVPSYMSLENYEATTAAKELWIVNNATHAESYWLDPLEYKKRIKDFLNKYFNDKN	not soluble
SNAMSVVIYHNPKCSKSRETLALLENQGIAPQVIKYLETSPSVEELKRLYQQLGLNEVRAMMRCKEELYKELNLGDSQLSDDALFAAMAEHPKLIERPIVVCNGQARHGRPPEQVLEIL	soluble
MSLGIPPNEAKTLGTYVPGDITLVDSYGNEFQLKNLKGKPIILSPIYTHCRAACPLITKSLLKVIPKLGTPGKDFWVITFTFDPKDTLEDIKRFQKEYGIDGKGWKVVKAKTSEDLFKLLDAIDFRFMTAGNDFIHPNVVVVLSPELQIKDYIYGVNYNYLEFVNALRLARGEGHHHHHH	soluble
MSLKITDVQLTAIGMPRLTGFVNKHVIVQLFTDEGIEGIGEMSDFSHLPKYAVDIVDLERTLKQILVGKNPFDIAPINTELNGNFPEAMYYYEKGSFIRNGVDTALYDLCAKALGVSVSDLLGGRQREKIKVCFPIFRHRFMDEVEANLELVKKQYEKGFDVFRLYVGKNVDADEAFLAGVYNEFGGKVKVKSLDFSHLLDWKEALRITRRLAKYPIDLVESPALRNDFAGLHHFRMRCELPVSEHVWSLRQQSEMIKHDSVDIFNIAPVFIGGITQARKAADAAAVAEKSVLIGTTQELSIGTTAMAYFGSTLDHLNYISDPTGPELYVGDVVKNKVNYENGYLHLPERSTIGLGMELDWEKVEQYRVESLNWEDVSVHQLQDRTAQTRAEGHHHHHH	soluble
SAALTDVQRLQSRVEELERWVYGPGGTRGSRKVADGLVKVQVALGNIASKRERVKILYKKIEDLIKYLDPEYIDRIAIPEASKLQFILAEEQFILSQVALLEQVNALVPVLDSASIKAVPEHAARLQRLAQIHIQQQDQCVAITEESKALLEGYNKTTMLLSKQFVQWDELLCQLEAAKQVKPAEE	soluble
MGSDKIHHHHHHILPNDESQKLIVNALINANKTNNAIFLALSGYHEPQVVKNGIIHLYINNVLSETISECTYRPNNDSPLDYQNYFYQISSRFKTGDQVRIEVETKDGKYKANAEATVYEPIEIIKADTIESNHSLSETSESLWIYQATKWKIKLQTPTTNHSQYYRVNIKQTYTYRLTNRKTLQDSTAISTQWECSGYYDTALMDGKPGTPNNSDPIINFIPTINNYYNVFNDAYFTNNQYTMTLDSWYSFLLDNKLYKIKKITGKAIIQYYAISPAEYQYLRAANAYADHDSSNLLETPVIFPNNIKGGIGIFAIENPTETSIPLKSIEDY	not soluble
MEGGMKRVVLAFGTRPEATKMAPVYLALRGIPGLKPLVLLTGQHREQLRQALSLFGIQEDRNLDVMQERQALPDLAARILPQAARALKEMGADYVLVHGDTLTTFAVAWAAFLEGIPVGHVEAGLRSGNLKEPFPEEANRRLTDVLTDLDFAPTPLAKANLLKEGKREEGILVTGQTGVDAVLLAAKLGRLPEGLPEGPYVTVTMHRRENWPLLSDLAQALKRVAEAFPHLTFVYPVHLNPVVREAVFPVLKGVRNFVLLDPLEYGSMAALMRASLLLVTDSGGLQEEGAALGVPVVVLRNVTERPEGLKAGILKLAGTDPEGVYRVVKGLLENPEELSRMRKAKNPYGDGKAGLMVARGVAWRLGLGPRPEDWLP	soluble
MSLMYKVLLVDDEYMILQGLTMIIDWQALGFEVVQTARSGKEALTYLTQYPVDVMISDVTMPGMTGLDLIEAAKTYHPQLQTLILSGYQEFSYVQKAMELETKGYLLKPVDKAELQAKMKQFKDCLDAQQAESIRQEAYHDSLLTLWLTDELSEKEFQQLSQGLPAAALIGFTVLYLDCQEWQAAIDAYFEQEGQPFYLKKEEDKKVYLAVLLGKTDQAKAFTYDLQKRFSRNMHQLILGETVDDWENVYESYNQVLKSLFYNCEVSPIRAKDKSKIELPESRLQFFAFNKALMIGDEPTILSKLEAIFDEMKTLNFSPEDVKHVSFLLFSDIYRQFPILDKMTYLSMVKTIHDSQSIDRILRELKKVLDVTNQNNSPEKRYSDLVSETIDCIRKEYHQELTLKAIADRLHVNGVYLGQCFKNETERSFTQYLNHVRIQKAQQLLLYTNQSINEIAYETGYNTNHYFIKMFKKLNGLSPKEFRDRYKDNYQAEGHHHHHH	soluble
GSQQGKFDTKGIESTDEAKMSFLVTLNNVEVCSENISTLKKTLESDCTKLFSQGIGGEQAQAKFDSCLSDLAAVSNKFRDLLQEGLTELNSTAIKPQVQPWINSFFSVSHNIEEEEFNDYEANDPWVQQFILNLEQQMAEFKASLSPVIYDSLTGLMTSLVAVELEKVVLKSTFNRLGGLQFDKELRSLIAYLTTVTTWTIRDKFARLSQMATILNLERVTEILDYWGPNSGPLTWRLTPAEVRQVLALRIDFRSEDIKRLRL	soluble
MGSDKIHHHHHHMDFKQVQQSFIDYIRDPSRPLPADTDVRRMQVYRELFFNNVLGFVSNGFPVLKSLYSEEEWLALVQSFFSQHDCQSPIFIDIAGEFLDFLQQQYQPTANDPVFMLELAHYEWLELAVAVAQASGDESQLSPAQIPMQALCLSKTARVAQYHFEVQHIRQDYRPQQQLDTPVFFCLYQDADCEVCFLQLNPLSAQVLAFLQAQGQASFKEIVDWLTITYPQMAPEIIAQGCTQLLEQLAAKGIVRGRQS	not soluble
MGSDKIHHHHHHMIRVLVLYFTRGGHTAKIASAIADQLKNRGAQVDLVDINSAAATRINWPDYQVVALGACVLYGTYDKTVFQFIEQHNQALSALPNSFFCVNVVARNPEKRIPENNKYLQKFIALSPWTPADLKIIAGKVDYPSWPWYDRLAIQLIMKMTKGPTDPKSVIDYTDWEDVKIYADHLLDLTEVTATT	not soluble
MGLTAMGLTTMGLTTVGLATMGATTKISQQHFFKFSRSDPIVLLQYSYSTTTVPRPYPTNNSKPISLQKTKTQFFLNYSNPTVLLQYLYSTTTVPRPYPTTNPKLISLQQPKTPFLSPRIRLVLREHERCRGALSDVWVAGAARGAVRCAKLYNKTRHVIRKISANKRKLFPLFYCYTYIHTYKNQVSPEKNANQKGKRMFPRFMVGVALIFELNNYDIETSCSHSSSSFSARLSSADYEVYWARALQILHVGGVEIDEFGGG	not soluble
MRPVYFLSDFGLEDPYVAVVKAVLAERAPGPAVVDLAHALPPQDLRRAAYALFEALPYLPEGAVVLAVVDPGVGTARRAVAALGRWTYVGPDNGLFTLAWLLDPPRRAFLLEPPRPRPKAALPGWAPGEATFHGRDVFAPAAAHLALGLPPEGLGPEVPVETLARLPLALTEGPEGEVLTFDRFGNAITTLLRAPVGGFVEVGGRRVPVRRTFGEVPEGAPVAYLGSAGLLEVAVNRGSAREALGLKEGMPVRLL	soluble
SLVKGESGHQAVSGIAIQRDLAIIEVDKEHLSSATKQCQMLGIDIWNVIEETERTGIMIKQEACAKFDLVFSDKIRNSEAVSLLTAVGLEANGMVEHACGLLAQQDIAINFCATNALTMMLVLPPESVDTAANILHDAYITSSEALNIQQKHAFLG	not soluble
MGSDKIHHHHHHMPSVVGHPQGNIEAIAFVIKFLEGLGFDIRITDIEKTEQPTIIAHYPGRLSDNKIVIYGHYDVAPVKELNSWVSEEAFTLENINGRLYGRGIADNKGPLMARMIALKSLILSDKAIPEILWLIQGEEEITQGDRVAHDIFKDEIPAFGAPVYIEETGFNDLDSNTQIAFLWSPDKSDSELIPWHSLLESSLDSPRIEYRHLNKLNGIKACPLLYNLPKNAVYMGFGPNDRLHFIHRDNESLNENKLLKHQQQFEKFLANYALYNDES	not soluble
MGSDKIHHHHHHMQLLEFPNIAIIAGENAVPVAQLPLVWQDIAKGTANVGLCNPQIYVEMAQLFLYKLEQGDVDLFNERPELAHLKSSFCQLFGQLGRETLEFYGYDFMTHNYPNFEEILREVESKDADYGKVARIGLELFQEFGYELPASFYHVHLAPIYRDHVFEERALRFDKRDIEHKRSWDAILHAGKVFAVQMKVQSIASKYGFTYQHGCGCNSHLSSIDESRGTFAYELSQEKRDRWIRSFIWTAWYEYAFFPIVPNTSYLV	not soluble
MSLKLLFFDTETTGVKPGSICQLSYILVDTSTKPQKTIGKNIFFTVDEMEPEAERIHGFSLEKLYELSEGMYFEDLYADFINDFLEADFIIGHNVQFDIKFLKHELLGLGEFFEPNNVFCTMKYYKDICKILRPTGDYKNPKLEEVIKHLNITDSEISETANKYFQGSGNYHDARFDTAATYLTVINGIKKGLIPRNYFTKLLEAEGHHHHHH	soluble
MGSDKIHHHHHHMPKEKYEPPDPRRMYTIMSSEEAANGKKSHWAELEISGKVRSLSSSLWSLTHLTALHLSDNSLSCIPSDIAKLHNLVYLDLSHNQIQSLPAELGNMVSLRELHLNYNQLRVLPFELGKLFQLQTLSLKGNPLTQDILNLCLEPDGTRRLLNYLLDNLSVSTEQPPPRSWIMLQEPDRTRPTALFSVMCYNVLCDKYATRQLYGYCPSWALNWDYRKKAIIQEILSCNADIISLQEVETEQYYSFFLVELKERGYNGFFSPKSRARTMSEQERKHVDGCAIFFKTEKFTLVQKHTVEFNQLAMANSEGSEAMLNRVMTKDNIGVAVLLELRKELIEMSSGKPHLGTEKQLILVANAHMHWDPEYSDVKLVQTMMFLSEVKNIIDKASRSLKSSVLGECGTIPLVLCADLNSLPDSGVVEYLSTGGVETNHKDFKELRYNESLTNFSCNGKNGMTNGRITHGFKLKSAYENGLMPYTNYTFDFKGIIDYIFYSKPQLNTLAILGPLDHHWLVENNISGCPHPLIPSDHFSLFAQLELLLPFLPQVNGIHLPGRR	not soluble
MTQRLHRDRHDRGVRGPLFSSALPRYCSRRQRFDATVLEAYAPLQQRYAAQLTHLDIAVDTVPRMRLGFDPALVPDEVVADGPVPLGRVIPAGVDSSGHPTRARLVLFRMAIEQRVVSAQERRELVTTVLTALVANYLNISPTDIDPNFQW	not soluble
RGSHHHHHHGSMGDNIVLYYFDARGKAELIRLIFAYLGIEYTDKRFGVNGDAFVEFKNFKKEKDTPFEQVPILQIGDLILAQSQAIVRYLSKKYNICGESELNEFYADMIFCGVQDIHYKFNNTNLFKQNETTFLNEDLPKWSGYFEKLLKKNHTNNNNDKYYFVGNNLTYADLAVFNLYDDIETKYPSSLKNFPLLKAHNEFISNLPNIKNYITNRKESVY	soluble
